# Test results from patent US20130217572A1, “SPECIFIC DELIVERY OF AGROCHEMICALS” (VRIJE UNIVERSITEIT BRUSSEL, priority 2010, published 2013).
# Changes are numbered by the printed parent chain.
# B1: Bivalent VHH 3E6 (VHH)
# chain: QVQLQESGGGLVQPGGTLSLSCAASGFNVRWYGMGWFRQAPGKEREGVACISALQETTAYADSVKGRFTLSRDNPKNTLSLQMNNLQPEDTGVYYCATTDCDDSSRMTYTSYLGQGTQVTVSSGGGGSGGGSQVQLQESGGGLVQPGGTLSLSCAASGFNVRWYGMGWFRQAPGKEREGVACISALQETTAYADSVKGRFTLSRDNPKNTLSLQMNNLQPEDTGVYYCATTDCDDSSRMTYTSYLGQGTQVTVSSAAAEQKLISEEDLNGAAHHHHHH
# notes: Built from the general description of the bivalent constructs (two VHH in tandem); Tested covalently coupled to Uvitex microcapsules
# B2: VHH 5C4 (VHH)
# VHH: QVQLQESGGGLVQPGGSLRLSCAASGFSLRYFGIGWFRQVAGKEREPVSCSNVRDGNTYYADSVKGRFTISRDNVRNTLYLQMNSLKPEDTAVYSCATTDCEATTWGTYRGYFGQGTQVTVSS
# notes: Hexahistidine-tagged
# B3: VHH 5G5 (VHH)
# VHH: B2 VHH with V40A, P47G, V48I, T78M, S85N, E89D
# notes: Hexahistidine-tagged
# B4: VHH 5D4 (VHH)
# VHH: QVQLQESGGGLVQPGGSLRLSCAASGFDMRRFGIGWFRQVAGKEREGVSCSNVHDGTTYYTNDVKGRFTIVRDNTKNMLYLQMNKLRPEDTAVYSCATTDCEATAWGTYRGYFGQGTQVTVSS
# notes: Hexahistidine-tagged
# B5: VHH5F5: plant-binding VHH, listed among SEQ ID NO:1-42 (protein, listed as Lama glama)
# VHH: QVQLQESGGGLVQPGGSLRLSCAASGFPLGLYGIGWFRQAPGKEREAVSCDSVDDGSTNYLDSVKGRFTISRDNAKNMVYLQMNSLKPEDTAVYYCATTDCDAKAWGTWTNYRGQGTQVTVSS
# modifications: 5F5
# B6: VHH7A2: plant-binding VHH, listed among SEQ ID NO:1-42 (protein, listed as Lama glama)
# VHH: QVQLQESGGGSVHPGGSLTLSCLASGFSLSNYGMGWFRQAPGKEREAVSCTSVPNGHIYYAESVKGRFTIVRDNAGNSVYLQMNSLKPEDAANYFCATTDCEAAHWGTWVNYYGQGTQVTVSS
# modifications: 7A2
# B7: VHH7C2: plant-binding VHH, listed among SEQ ID NO:1-42 (protein, listed as Lama glama)
# VHH: QVQLQESGGGLVQPGGSLRLSCAAFGFALANYGIGWFRQAPGKDRERVSCDSVDDGSTHYSNSVQGRFTIIRDNAKNTVFLQMNSLKAEDTAVYYCATTDCDATTWGTWINYRGQGTQVTVSS
# modifications: 7C2
# B8: VHH5E5: plant-binding VHH, listed among SEQ ID NO:1-42 (protein, listed as Lama glama)
# VHH: QVQLQESGGGLVQPGGSLTLSCTASGFAMRRFGIGWFRQVVGKEREGVSCSNVHDGSTYYANYVKGRFTIVRDDTKNMLYLHMNSLRAEDTGVYSCATTDCEATAWGTYRGYFGQGTQVTVSS
# modifications: 5E5
# B9: VHH 7D2 (VHH)
# VHH: QVQLQESGGGLVQPGRSLKVACAAAGFSLRYYGIGWFRQAPGKEREAVSCTSANDGSTYYRDSVRGRFTISRDDGKNTVYLQMNRLKPEDTAVYYCATTDCDATSWGTWINYYGQGTQVTVSS
# notes: Hexahistidine-tagged
# Experiments:
# unrelated antigens [1] = assay: VHH-coupled Uvitex microcapsules retained on wells coated with unrelated antigen; 20% surface coverage
# unrelated antigens [2] = assay: VHH-coupled Uvitex microcapsules retained on wells coated with unrelated antigen; 100% surface coverage
# potato lectin (Sigma) [3] = molecular target: T1, potato lectin (Sigma) (potato, UniProt Q9S8M0 23-323); assay: VHH-coupled Uvitex microcapsules on potato lectin-coated wells; 25-fold less microcapsules applied
# T1 construct: Bought glycoprotein, coated on ELISA plates
# T1 sequence (looked up): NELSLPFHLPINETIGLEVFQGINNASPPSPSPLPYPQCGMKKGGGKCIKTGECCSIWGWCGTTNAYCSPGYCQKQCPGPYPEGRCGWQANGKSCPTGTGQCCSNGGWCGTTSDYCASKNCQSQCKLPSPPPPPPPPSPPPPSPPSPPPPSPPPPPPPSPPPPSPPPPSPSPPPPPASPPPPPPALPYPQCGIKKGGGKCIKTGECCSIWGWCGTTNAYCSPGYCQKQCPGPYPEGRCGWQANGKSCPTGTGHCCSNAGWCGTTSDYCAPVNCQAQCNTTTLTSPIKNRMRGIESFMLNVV
# Protocol: An ELISA-like assay was performed using high bind half area microplates (Greiner Bio-One) coated with 5 μg/well potato lectin. Control wells included blank wells or wells coated with unrelated antigens. Plates were washed three times with PBS with 0.05%-TWEEN®-20 and blocked with 5% skimmed milk in PBS for 1 to 2 hours. VHH-coupled Uvitex-containing microcapsules were diluted to appropriate densities in 1% skimmed milk in PBS with 0.05%-TWEEN®-20. Five-fold serial dilution series were prepared and allowed to bind to the surface to compare binding of microcapsules coupled with monovalent or bivalent VHH. Microcapsules were added to the antigen-coated or control wells and allowed to bind for 1 hour. Unbound microcapsules were removed by washing five times with PBS with 0.05%-TWEEN®-20. The bottoms of ELISA plate wells were analyzed for bound microcapsules on a macrozoom microscope system (Nikon). Microcapsules were counted using Volocity image analysis software (Perkin Elmer). A DAPI filter was used to visualize Uvitex microcapsules.
# The surface area of microcapsules with coupled bivalent VHH was 15-fold above the surface area of blank microcapsules applied at this microcapsule density while the surface area of microcapsules with monovalent VHH was only six-fold above the surface area of blank microcapsules applied at this microcapsule density. […]
# unrelated antigens [4] = assay: VHH-coupled Uvitex microcapsules retained on wells coated with unrelated antigen; 4% surface coverage
# potato lectin = molecular target: T2, potato lectin (Solanum tuberosum, UniProt Q9S8M0); assay: VHH binding to potato lectin in ELISA; details: blank wells; VHH 3 μg/ml
# T2 sequence (Q9S8M0 23-323): T1 sequence (looked up)
# Protocol: (§1) ELISA plates (Maxisorp, Nunc) coated with 100 μl per well 100 μg/ml potato lectin (Sigma) in PBS were coated at 4° C. overnight and coating was continued at room temperature for 1 hour on the next day. Plates were washed three times with PBS/0.05%-TWEEN®-20 and blocked with 5% skimmed milk in PBS for 1 hour. VHH (3 μg/ml) were transferred to the potato lectin-coated plates and VHH antibody fragments were allowed to bind for 1 hour at room temperature. Bound VHH were detected with sequential incubations with monoclonal mouse anti-histidine antibodies (Abd Serotec) and rabbit anti-mouse IgG whole molecule antibodies conjugated with alkaline phosphatase (RaM/AP) (Sigma) in 1% MPBS/0.05%-TWEEN®-20. Unbound antibodies were removed by washing three times with PBS/0.05%-TWEEN®-20 after each antibody incubation. The plates were washed an additional two times with PBS and 100 μl pNPP disodium hexahydrate substrate (Sigma) was added to each well and the absorbance at 405 nm was measured (see Table 2).
# gum arabic = assay: VHH binding to gum arabic in ELISA; parameters: species or system acacia tree
# Protocol: Titration of VHH antibody fragments was performed on ELISA plates (Maxisorp, Nunc) coated with 100 μl per well 100 μg/ml gum arabic in 50 mM carbonate pH9.6. Plates were coated at 4° C. overnight and coating was continued at room temperature for 1 hour on the next day. Plates were washed three times with PBS/0.05%-TWEEN®-20 and blocked with 5% skimmed milk in PBS for 1 hour. Four-fold serial dilutions of purified VHH antibody fragments were prepared in 1% MPBS/0.05%-TWEEN®-20 in polypropylene 96-well plates. Antibody concentrations ranged from 3 μg/ml to 12 ng/ml. Antibody dilutions were transferred to the gum arabic-coated plates and VHH antibody fragments were allowed to bind for 1 hour at room temperature. Bound VHH were detected with sequential incubations with monoclonal mouse anti-histidine antibodies (Abd Serotec) and rabbit anti-mouse IgG whole molecule antibodies conjugated with alkaline phosphatase (RaM/AP) (Sigma) in 1% MPBS/0.05%-TWEEN®-20. Unbound antibodies were removed by washing three times with PBS/0.05%-TWEEN®-20 after each antibody incubation. The plates were washed an additional two times with PBS and 100 μl pNPP disodium hexahydrate substrate (Sigma) was added to each well. The absorbance at 405 nm was measured and plotted as function of antibody concentration (see Table 1).
# potato lectin (Sigma) [5] = molecular target: T1, potato lectin (Sigma); assay: ELISA, potato lectin coated at 100 ug/ml, VHH at 3 ug/ml, anti-histidine detection
# Protocol: as §1
# potato leaf surface = assay: VHH binding to leaf discs (microscopy); parameters: species or system potato (variety Désirée); details: 5 μg/ml in PBS, anti-histidine Alexa-488 detection
# Protocol: VHH binding to non-fixed leaf discs of potato (variety Désirée), black nightshade, grass, wheat or azalea was investigated. For comparison, binding of CBM3a to non-fixed leaf discs of potato (variety Désirée) was analyzed in parallel. Leaf discs were prepared by punching a fresh potato leaf with a 5 mm belt hole puncher tool. Leaf discs were put immediately in wells of a 96-well plate containing 200 μl per well 5% MPBS or PBS, and incubated for 30 minutes. Leaf discs were transferred to solutions containing 5 μg/ml VHH antibody fragment, respectively 5 μg/ml CBM3a in 2% MPBS or PBS and incubated for 60-90 minutes. Unbound VHH or CBM3a proteins were removed by washing three times with 2% MPBS or PBS. Bound VHH or CBM3a proteins were detected with incubation with monoclonal mouse anti-histidine antibodies directly conjugated with Alexa-488 fluorescent dye (Abd Serotec) in 1% MPBS for 1 hour. Unbound antibodies were removed by washing three times with PBS. Leaf discs were put on glass slides, covered with cover slips, and analyzed by microscopy or on a macrozoom microscope system (Nikon) or a SP5 confocal microscope system (Leica).
# [6] = Table 2, gum arabic coat, VHH 3 μg/ml
# [7] = [VHH] 0.0117188 μg/ml (0.78125 nM), gum arabic 100 μg/ml
# [8] = [VHH] 0.04688 μg/ml (3.125 nM), gum arabic 100 μg/ml
# [9] = [VHH] 0.1875 μg/ml (12.5 nM), gum arabic 100 μg/ml
# [10] = [VHH] 0.75 μg/ml (50 nM), gum arabic 100 μg/ml
# [11] = [VHH] 3 μg/ml (200 nM), gum arabic 100 μg/ml
# [12] = [VHH] 3 μg/ml (200 nM), no gum arabic coat (−)
Molecule,surface area of bound microcapsules (unrelated antigens [1]),surface area of bound microcapsules (unrelated antigens [2]),fold of surface area above blank microcapsules (potato lectin (Sigma) [3]),surface area of bound microcapsules (unrelated antigens [4]),absorbance at 405 nm (potato lectin),absorbance at 405 nm (gum arabic; [6]),absorbance at 405 nm (gum arabic; [7]),absorbance at 405 nm (gum arabic; [8]),absorbance at 405 nm (gum arabic; [9]),absorbance at 405 nm (gum arabic; [10]),absorbance at 405 nm (gum arabic; [11]),absorbance at 405 nm (gum arabic; [12]),absorbance at 405 nm (potato lectin (Sigma) [5]),binding to native potato leaf surface (potato leaf surface),binding to native potato leaf surface (potato leaf surface; listed as 5D4)
B1,22.1,45.7,15 fold,15,–,–,–,–,–,–,–,–,–,–,–
B2,–,–,–,–,0.071,0.873,0.166,0.386,1.036,1.710,2.010,0.082,4,–,–
B3,–,–,–,–,0.073,0.751,0.125,0.317,0.906,1.611,1.966,0.077,4,–,–
B4,–,–,–,–,0.072,0.530,0.087,0.134,0.378,0.840,1.280,0.075,4,"binding leaf surface, stomata, glandular trichomes, and leaf hairs","clearly binding to trichomes, stomata and cuticle"
B5,–,–,–,–,–,–,0.093,0.100,0.191,0.476,0.959,0.090,–,–,–
B6,–,–,–,–,–,–,0.088,0.101,0.216,0.677,1.391,0.075,–,–,–
B7,–,–,–,–,–,–,0.088,0.092,0.090,0.194,0.461,0.077,–,–,–
B8,–,–,–,–,–,–,0.074,0.088,0.185,0.569,1.194,0.073,–,–,–
B9,–,–,–,–,0.072,0.274,0.083,0.136,0.347,0.906,1.427,0.074,4,–,–
